Article PMC3164674

Target: MUC1 (mucin 1) on the surface of MCF-7 cells (human (MCF-7 breast cancer cell line)) (UniProt P15941)
Test: flow cytometry on cells
Conditions: 300 nM DNA; 5 mM Mg2+; MUC1+ MCF-7 vs MUC1- HepG2; S2.2 with 48-nt DNA spacer at 3' end; 100 mM NaCl, 5 mM MgCl2, pH 7.2, 300 nM DNA, 30 min; temperature not stated

Chain of UniProt P15941 (P15941 whole entry): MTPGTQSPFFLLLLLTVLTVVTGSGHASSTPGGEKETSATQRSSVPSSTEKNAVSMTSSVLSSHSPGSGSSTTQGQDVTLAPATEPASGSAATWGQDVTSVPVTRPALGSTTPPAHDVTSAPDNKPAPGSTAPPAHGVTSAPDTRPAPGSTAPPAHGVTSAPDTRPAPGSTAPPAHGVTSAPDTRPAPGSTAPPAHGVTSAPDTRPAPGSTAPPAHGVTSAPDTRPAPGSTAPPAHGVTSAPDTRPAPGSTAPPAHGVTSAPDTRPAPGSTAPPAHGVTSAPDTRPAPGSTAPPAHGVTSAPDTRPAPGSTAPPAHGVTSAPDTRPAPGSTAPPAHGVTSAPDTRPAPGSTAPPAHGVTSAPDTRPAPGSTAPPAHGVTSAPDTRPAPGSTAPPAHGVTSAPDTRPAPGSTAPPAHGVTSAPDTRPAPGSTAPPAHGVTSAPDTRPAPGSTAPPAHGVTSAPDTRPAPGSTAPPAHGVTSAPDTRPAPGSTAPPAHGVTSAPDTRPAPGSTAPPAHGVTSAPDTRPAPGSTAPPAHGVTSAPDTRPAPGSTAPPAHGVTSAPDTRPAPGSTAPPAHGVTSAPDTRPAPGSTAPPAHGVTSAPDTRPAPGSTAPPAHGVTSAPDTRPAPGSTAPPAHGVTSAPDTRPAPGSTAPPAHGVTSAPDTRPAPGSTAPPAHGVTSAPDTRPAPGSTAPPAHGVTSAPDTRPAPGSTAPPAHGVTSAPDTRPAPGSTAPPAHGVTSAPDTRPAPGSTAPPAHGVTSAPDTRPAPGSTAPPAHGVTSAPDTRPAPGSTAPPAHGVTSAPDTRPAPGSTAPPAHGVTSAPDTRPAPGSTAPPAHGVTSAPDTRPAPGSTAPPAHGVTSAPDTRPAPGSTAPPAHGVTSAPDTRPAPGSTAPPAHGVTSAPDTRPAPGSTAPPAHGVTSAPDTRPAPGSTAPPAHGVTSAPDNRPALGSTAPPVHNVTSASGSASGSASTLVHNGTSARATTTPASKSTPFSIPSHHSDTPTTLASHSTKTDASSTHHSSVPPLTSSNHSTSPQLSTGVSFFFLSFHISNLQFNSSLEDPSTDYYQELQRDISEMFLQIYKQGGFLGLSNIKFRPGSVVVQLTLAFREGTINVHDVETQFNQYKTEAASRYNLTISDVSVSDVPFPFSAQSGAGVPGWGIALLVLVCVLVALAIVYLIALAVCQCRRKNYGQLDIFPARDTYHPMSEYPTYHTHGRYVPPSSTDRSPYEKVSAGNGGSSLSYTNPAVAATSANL

**Q.** For “GCAGTTGATCCTTTGGATACCCTGGTTCCCTTCCTTCTCTCTTCCTCTCTCCTTCTCTCTTCCTCTCTCCTTC [S2.2-spacer]”, which binding signal (fold (mean fluorescence MCF-7/HepG2)) is on record?
**A.** 3.5
